Data published in PMC2696590 (2009).

B1: [^3H]-neurotensin [modified: pyroGlu at position 1; [3,11-tyrosyl-3,5-^3H(N)] (tritium on Tyr3 and Tyr11); pyroGlu at position 1; [3,11-tyrosyl-3,5-^3H(N)] (tritium on Tyr3 and Tyr11)] [not stated] / wild-type NTS1 (N-terminally truncated … (parent complex)
chain 1: not shown
chain 2: TSESDTAGPNSDLDVNTDIYSKVLVTAIYLALFVVGTVGNSVTAFTLARKKSLQSLQSTVHYHLGSLALSDLLILLLAMPVELYNFIWVHHPWAFGDAGCRGYYFLRDACTYATALNVASLSVERYLAICHPFKAKTLMSRSRTKKFISAIWLASALLAIPMLFTMGLQNRSGDGTHPGGLVCTPIVDTATVKVVIQVNTFMSFLFPMLVISILNTVIANKLTVMVHQAAEQGRVCTVGTHNGLEHSTFNMTIEPGRVQALRHGVLVLRAVVIAFVVCWLPYHVRRLMFCYISDEQWTTFLFDFYHYFYMLTNALFYVSSAINPILYNLVSANFRQVFLSTLACLCPGWRHRRKKRPTFSRKPNSMSSNHAFSTSATRETLY

Variants of: B1
Test: saturation binding assay on intact E. coli cells; intact E. coli cells

| Variant | Kd [nM] |
| --- | --- |
| chain 2 A44L, chain 2 F316A | 0.1 |
